Experimental data published in publication PMC3094545 (Structure (London, England : 1993), 2011).

Target: the molecule itself
Experiment: crystal structure

B1: cytoplasmic domain of ZntB from Salmonella enterica serovar Typhimurium (domain or fragment)
chain: MEAIKGSDVNVPDAVFAWLLDGRGGVKPLEDNDVIDSQHPCWLHLNYTHPDSARWLASTPLLPNNVRDALAGESSRPRVSRMGEGTLITLRCINGSTDERPDQLVAMRLYMDERFIVSTRQRKVLALDDVVSDLQEGTGPVDCGGWLVDVCDALTDHASEFIEELHDKIIDLEDNLLDQQIPPRGFLALLRKQLIVMRRYMAPQRDVYARLASERLPWMSDDHRRRMQDIADRLGRGLDEIDACIARTGIMADEIAQVMQES
- stoichiometry N: 5
